# Experiment: soluble on expression in E. coli; label from the status in PepcDB or PDB records
row,Sequence,soluble on expression in E. coli
1,MTELKDRLQVADKEKWNLTDIYDTIEDWESDFHKIEVLTNELHEFNGNIHDGNSLLAYLTKSEEISSIISLMFAYARLQSDLDTRDTDAQSLVDKVSQLHVKVSAAKSFFSPFLLSVDENTLHTYIEEAEGLQYYKEDLFELYRYKKHVLNKDQEEILSQMGEALSSPQHTYGMLNNADILFGEVTSNDGEKVTLTRGMYAKLIEDESREKRKEAYKAYYKPYVQLKNSIASTLSAAIKNNVTVSKLRKYPSALEKSLFGDMVPKEVYENLIETTKKNIQSLHTYNKLRKEKLNVDELRQYDLSVDLVQGVKQDIPYDNAFDIMIESLAPLGEEYIETLKSFKDKRYIDVRETPGKCSGAYNFGVYGVHPFILLNHHDDLNSLFTLTHECGHGMHTHYSHGYQPRISAHYTIFVAEVASTVNEVLLIHHLLKEAKDANVRNHLVNHFIEKFKGTFFTQIMFAEFEKITHEMAQQGKPLNAQVFSDVYENLFREYNGDSLVFDEEVKYGWARIPHFYRPFYVYKYATGFASAIQIADKLLSGDPNAQKNYLEFLKGGSSDYPLNLLKKAGVDLTTPEPIESALNRFSELVEEFSTL,not soluble
2,MTKAVVIGGGLAGLATTALLLREGYEVHLVEQNEHLGGRAGTFELDGFRWDTGPSWYLMPDAMSHFFKLCGTSIDDHLDLVPLEPAYRVIDDHGEFIDVTSDIDAMAELFESREPGAGAKLRTYIDSATQVYNLAIDGFLYTNFTNFIPYLSPGMLRLLPKLLASLSTSLKVKVNTQFRDTKLRQILSYPAVFLSSDPSHTPALYHLMSHTDLVQGVSYPRGGFTAFIKALISLIDDAVLHLGTPVSAITTQGRNATGVQVGSEFIEADIVISCADQHHTETQLLPASLCAKPETSWKNKQPGLSTVLVLAGVKGEHTLLFPPTGTKISAKFSTAPPQNSRLQNPSRSPRPPQQIPMPHPKATRTSSSWSQYPPMSPLVTGPLTEKNLTWWAGSQLEHHHHHH,not soluble
3,HHHHHHFADLVIQVIDELKQFGVSVKTYGAKGDGVTDDIRAFEKAIESGFPVYVPYGTFMVSRGIKLPSNTVLTGAGKRNAVIRFMDSVGRGESLMYNENVTTGNENIFLSSFTLDGNNKRLGQGISGIGGSRESNLSIRACHNVYIRDIEAVDCTLHGIDITCGGLDYPYLGDGTTAPNPSENIWIENCEATGFGDDGITTHHSQYINILNCYSHDPRLTANCNGFEIDDGSRHVVLSNNRSKGCYGGIEIKAHGDAPAAYNISINGHMSVEDVRSYNFRHIGHHAATAPQSVSAKNIVASNLVSIRPNNKRGFQDNATPRVLAVSAYYGVVINGLTGYTDDPNLLTETVVSVQFRARNCSLNGVVLTGFSNSENGIYVIGGSRGGDAVNISNVTLNNSGRYGVSIGSGIENVSITNISGIGDGINSPVALVSTINSNPEISGLSSIGYPTVARVAGTDYNDGLTLFNGAFRASTTSSGKIHSEGFIMGSTSGCEASVSKSGVLTSSSSKTSSERSLIAGSSTSEAKGTYNTILGSLGAVADEQFAALISASQSRASGNHNLILSSYGINTTGSYKVNGGFEKINWELDSLNGRIKARDTVTGGNTWSDFAEYFESLGGQVIETGYLVTLEKGKIRKAEKGEKIIGVISETAGFVLGESSFEWQGAVLKNEFGGIIYEEVTTEDGVKFKRPLPNPDFDPNKNYIPRSQRREWHVVGLLGQIAVRIDETVKQGHSIDAVGGVATDGDNFIVQEITTPYTKEKGYGVAIVLVK,soluble
4,MKATSEELAIFVAVVESGSFSRAAEQLGQANSAVSRAVKKLEMKLGVSLLNRTTRQLSLTEEGERYFRRVQQILQEMAAAETEIMESRNTPRGLLRIDAATPVMLHFLMPLIKPFRERYPEITLSLVSSETFINLIERKVDVAIRAGTLTDSSLRARPLFTSYRKIIASPDYIARFGKPETVEELKRHLCLGFSEPVSLNTWPIACSDGQLHEIKCGISSNSGETLKQLCLNGNGIACLSDYMIDKEIARGELVELLADKRLPVEMPFSAVYYSDRAVSTRIRAFIDFLSEYIRTAPAGAVKEG,not soluble
5,MKILPLALFIIPFLAGCGANNTPPQTPIPGEKTSAKLRTLETGAAAIQSRPPVDAISTYLDGFHFYSGDKNGQMEAHHYVTVLNEDVMQAVIYDGNTKNARLMGVEYIISERLFKTLPPEEKKLWHSHQYEVKSGSLVAPGLPQVADKALMSKIVNTYGKTWHTWHTDRDKTLPMGIPALMMGFTGDGQLDPALLADRDRRLGIDTQAIKRERQDLPEHPVVKGANAWEQGEVIQLQRVQGSGEHGRGDTAHFGTSEQSRQLEHHHHHH,soluble
6,MKKIGIIGGTTPESTLYYYKKYIEISREKFEKYFYPELIIYSINFKEFFQNPEGWEGRKKILINAAKALERAGAELIAFAANTPHLVFDDVQREVNVPMVSIIDAVAEEILKRGVRKVLLLGTKTTMTADFYIKTLEEKGLEVVVPNDEEKEELNRIIFEELAFGNLKNKEWIVRLIEKYRESEGIEGVILGCTELPLAIKQGDVSVEVFDSAEIHMRKLIELASE,soluble
